# Data: the nanobody polyreactivity screen of Harvey et al. (2022)
# Experiment: yeast display, Sf9 membrane polyspecificity reagent, FACS + sequencing; frameworks hold sequencing errors
# How it was run: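 Using colony PCR, genes from sorted yeast display clones were amplified, then sequenced on MiSeq at 2 × 250 and filtered by CDR length. The clones had been stained with 10% biotinylated, detergent-solubilized Sf9 membrane reagent for 1 hour at 4 °C and sorted by FACS into low and high (top ~1%) gates on anti-HA and streptavidin fluorescence. Polyreactivity labels come from the gate of origin.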
sequence,measurement,value
QVQLVESGLGLVQAGVSLRLSCAATGLTFVYYAMGWYRPAHGKERELVAAIDWSGGTTYYADSVKGRFTISRDHAKNTVYLQMNSLKPEDTAVYYCAADVVEEDDLEFYYWGQGTQVTVSS,polyreactivity (PSR sort gate),high polyreactivity
QVQLVESGRGIVQAGGSLRLSCAASGRIFYLNAMGWYRQAPGKERELVAAITRSAASTHYADSVKGRFTISRDNAKNTVYVQMNSLKPEDTAVYYCAARFWYDYRHYDYWGQGTQVTVSS,polyreactivity (PSR sort gate),low polyreactivity
QVQLVESGRGIVQAGGSLRLSCAASGRTFYVYTMGWYRQAPGKERELVAAITSGGSTNYADSVKGRFTISRDNAKNTLYLQMNSLKPEDTAVYYCAARVSTVFKRYYYWGQGTQVTVSS,polyreactivity (PSR sort gate),high polyreactivity
QVQLVESGRGLDQAGGSLRISSAASGNTYKGHAMGWYRHAPGKERELVAAISWSTDSTYYADSVKGRFTISRDNAKNTVYLQMNSLKPEDTAIYYCAAYYSHLTIAWYYYWGQGTQVNVSS,polyreactivity (PSR sort gate),low polyreactivity
QVQLVESGRGLFQAGGSLRLSCAASGIIFKSYAMGWYRQAPGKEREFVAAISWSGGRTTYADSLKGRFTISRDNAKNTVYLPMNSLKPEDTAVYYCAAAARGKFYYWGQGTQVTVSS,polyreactivity (PSR sort gate),high polyreactivity
QVQLVESGRGLFQEGGSLRLSCAPSGFIFGKYAMGWYRQAPGTEREFVAAITRNGGSTYYADSVKGRVTISRDNAKNTVYLQMNSLKPDDTAVYYCNADRGYRRRTGMDDWGQVTQVTVSS,polyreactivity (PSR sort gate),low polyreactivity
QVQLVESGRGLLQAGGSLRISCAASGFTFKGNAMGWYRQAPGKESELVAAITTSGGSTYYADSVKWRFTISRDNAKNTVYLQMNSLKPEDTAVYYCNAYFIYEGGWYYNAQYDYWGQGTQVTVSS,polyreactivity (PSR sort gate),low polyreactivity
QVQLVESGRGLLQAGGSLRLSCASSGCIFTSYAMGWYRPAPGKVRELVAGITRGGRTYYADSVKGRFTISRDKAKNTVYLQSNSLKPEDTAVYYCAALSSRHFVFTVDYWGQATQVTVSS,polyreactivity (PSR sort gate),high polyreactivity
QVQLVESGRGLVEAGGSLRLSCAASGSTFWAYVMGWSRQAPGKERELVAAITSSGGSTYYADSVKGRFTISRDYAKNTVYLQMNILKPEDTAVYYCAADYFYPYYGAMDYWGQGTQVTVSS,polyreactivity (PSR sort gate),low polyreactivity
QVQLVESGRGLVQAGCSLRLSCASSGFIFVFNAMGRYRQAPGKERELVAAINGGDITNYAYSVKGRFTISRDNAKNTVYIQMNSLKPEDTAVYYCAADGEDSLWSGYDYDYWGLGTQVTVSS,polyreactivity (PSR sort gate),low polyreactivity
QVQLVESGRGLVQAGCSLRLTCAASGSIFPQYAMGWYRQAPGQERELVAAITRSGGGTHYADSVKGRFTISRDNAKNTVYLQMNSLKPEDTAVYYCAKAGYRSEFEYWGQGTQVTVSS,polyreactivity (PSR sort gate),low polyreactivity
QVQLVESGRGLVQAGGSLRLICDASGSTFFLYGMGWYRPAPGKERELVAAITWNGGSTYYADSVKGRFTISRDNAKNTVYLQMNSLKPEDTAVYYCAADYYGYFSTPYDYWGQGTQVTVSS,polyreactivity (PSR sort gate),low polyreactivity
QVQLVESGRGLVQAGGSLRLSCAASGFTFGYYAMGWYRQAPGKERELVAAITSSGGTTYYADSVKGRFTISRDNAKNTVYLQMNSLKPEDTAVYYCAAEAQYYVVDPYGYDYWGQGTQVTVSS,polyreactivity (PSR sort gate),low polyreactivity
QVQLVESGRGLVQAGGSLRLSCAASGIIFEYYTMGWSRPAPGKERELVASITYDGDSTYYADSVKGRFTISRDNAKNTVYLQMNSLKPEDTAVYYCAAEYYYVYSSFGHFYWGQGTQVTVSS,polyreactivity (PSR sort gate),low polyreactivity
QVQLVESGRGLVQAGGSLRLSCAASGITFGWYAMGWYRQPPGKATELVASISSSGSTNYADSVKGRFTNSRDNAKNTVYLQMNSLKPEDTAVYYCNKDYLLRHYYIYVIEGDYWGQGTQVTVSS,polyreactivity (PSR sort gate),low polyreactivity
QVQLVESGRGLVQAGGSLRLSCAASGRIFDRNAMGWYRDAPGKERELVAAIDDSVGDTSYADSVKGRFTISRDNAKNTVYLQMNSLKPEDTSVFYCNAGYADFVTYPRYYYWGQGTQVTVSS,polyreactivity (PSR sort gate),low polyreactivity
QVQLVESGRGLVQAGGSLRLSCAASGRIFFRYAMGWYRQAPGKAMELVAALPKSGGSTYADSVKGRFTISRDNAKTTVSLQMNSLKPEDTAVDDCATETTHYRDSGYIVKYRSEYWGQGTQVTVSS,polyreactivity (PSR sort gate),low polyreactivity
QVQLVESGRGLVQAGGSLRLSCAASGRIFKAYAMGWYRQAPGKERELVAAISRSGGRTFYADSVKGRFTISRDNAKNTVYLQMNSLKPEDTAVYYCAVDVSPDSEYYYWGQGTQVTVSS,polyreactivity (PSR sort gate),high polyreactivity
QVQLVESGRGLVQAGGSLRLSCAASGRIFKGYAMGWYRQAPGKERELVAAITTSGGGTYSADSVKGRFTFSRDNAKNTVYLQMNSLKPEDPAVYYCAKTLGSQNYDFDYWGQGTQVTVSS,polyreactivity (PSR sort gate),low polyreactivity
QVQLVESGRGLVQAGGSLRLSCAASGRIFTTDVMGWDRQAPGKERELFAAISARGSTYYADYVKWRFTISRDNAKNTVYLHMNSLKPEDTAVYYFAKKGWSSHERAWYIYDYWGQGTQVTVSS,polyreactivity (PSR sort gate),low polyreactivity
QVQLVESGRGLVQAGGSLRLSCAASGRTFDGYAMGWYRQAPGKERELVAAIDYDGVSTYYADSVKGRFTISRDNAKNTVYLPMHSLKPEDTAVYFCAVDATDDWWLDYWGQGTQVSVSS,polyreactivity (PSR sort gate),low polyreactivity
QVQLVESGRGLVQAGGSLRLSCAASGRTLRIYAMGWYRQAPGKERELVAAITSSGRTNYADSVKGRFTISRDNAKNTVYLQMNSLKPEDTAVYYCAAVTPAVNYFRAASGYYYWGQGTQVTVSS,polyreactivity (PSR sort gate),low polyreactivity
QVQLVESGRGLVQAGGSLRLSCAASGSIFDKYAMGWDRQAPGKEREMVAAISYSGGRTYYADSVKGRFTISRDNAKNTVYLQMNCLNPEDTAVYYCNAVGSVITDFGYWGQGTQVTVSS,polyreactivity (PSR sort gate),low polyreactivity
QVQLVESGRGLVQAGGSLRLSCAASGSIFIANPMGWYRQAPGKQREFVADITLNGGSTYYADSVKGRFTISRDNAKNTVYLEMNRLNPEDTAVYYCAADWVWVAPQYWIVEYDYWGQGTQVTVSS,polyreactivity (PSR sort gate),low polyreactivity
QVQLVESGRGLVQAGGSLRLSCAASGSIFRYNAMGWYRQAPGKERELVAAITRRGTSTYYADSVKGRFTISRDNAKNTVYLQKNSLKPEDTAVYYCAARYLYGVPVGGHGYWGQGTQVSVSS,polyreactivity (PSR sort gate),high polyreactivity
QVQLVESGRGLVQAGGSLRLSCAASGSIFTPNVMGWYIQAPGKERELVAAISQSGGSTFYADSVKGRFTISRDNAKNTVYLQLNSLKPEDTAVYYCATEYDGPVYDLDYDYWGQGTLVTVSS,polyreactivity (PSR sort gate),low polyreactivity
QVQLVESGRGLVQAGGSLRLSCAASGSTFDANAMGWYRQAPGKERELVAAISRSGGNTYYADSVKGRFTISRDNAKNTVYLQMNSLKPEDTAVYYCAADFRNAYYDRLDYWGQGTHVTVSS,polyreactivity (PSR sort gate),low polyreactivity
QVQLVESGRGLVQAGGSLRLSCAASGSTFGGYAMGWYRQAPGKERELVAAISGSGVRTYYADSVKGRFTISRDNAKNTVYLQMNSLKPEDTAVYYCAKRVRYPGDRYYYWGQGTQVTLSS,polyreactivity (PSR sort gate),high polyreactivity
QVQLVESGRGLVQAGGSLRLSCAASGSTFGRYVMGWYRQAPGKERELVAAISKNAGSTYYADSVKGRFTISRDNAKNTVYLQMNSLKPEDTAVYYCNRERRYRNDYWGQGTQVTVSS,polyreactivity (PSR sort gate),high polyreactivity
QVQLVESGRGLVQAGGSLRLSCAASGSTFNRNAMGWYRQAPGKERELVAAITIRGGSTSYADSVKGRFTISRDNAKNTVYLQMNSLKPEDTAVYYCNRQSRNAGGYYWGQGTHVTVSS,polyreactivity (PSR sort gate),low polyreactivity
QVQLVESGRGLVQAGGSLRLSCAASGSTFPPSAMGWYRQAPGKERELVAAIDVSGGTTFYADSVKGRFTISRDNAKNTVYLQMNSLKPEDTAVYYCAIGSVSARFEYWGQGTQVTVSS,polyreactivity (PSR sort gate),low polyreactivity
QVQLVESGRGLVQAGGSLRLSCAASGSTFRGNAMGWYRQAPGKERELVAAISVTGGSTYYADSVKVRFTISRDNAKNTVYLQMNSLKPEDTAVYYCADRVQRGQYSFVRDYYYWGQGTQVTVSS,polyreactivity (PSR sort gate),high polyreactivity
QVQLVESGRGLVQAGGSLRLSCAASGSTFRYYAMGWYRQAPGKERELVAAISYSGGSTYYADSVKGRFTISRDNAKNTVYLQMNSLKPEDTAVYYCASSWYSIGKRYYYWGQGTQVTVSS,polyreactivity (PSR sort gate),high polyreactivity
QVQLVESGRGLVQAGGSLRLSCAASGSTFVRNAMGWYRQAPGKERELDAAITSSGGSTYYADSVKGRFTISRDYAKNTVYVQMNRLKPEDTAVYYCGKRRYYRYDYWGLGTQVTVSS,polyreactivity (PSR sort gate),low polyreactivity
QVQLVESGRGLVQAGGSLRLSCAASGSTISFYAMGWYRQAPGKERELVAAISFRGGRTYYADSVKGRFTISRDNAKNTVYLQMNSLKPEDTAVYYCNAERYYRYWDKQEDYWGQGTHVTVSS,polyreactivity (PSR sort gate),high polyreactivity
QVQLVESGRGLVQAGGSLRLSCAASGTTCLYYTMGWYRQAPGKERELVASISYSGGRTYYADSVKGRFTISRDNAKNTVYLQMNSLKPEDTAVYYCNKKRYYDGYDYWGQGTQVTVSS,polyreactivity (PSR sort gate),high polyreactivity
QVQLVESGRGLVQAGGSLRLSCAASVGTFDKNAMGCYRQAPGNERELVAALTYGGGSTYYADSVKGRFTISRDNAKNTVYLQMNSLKPEDTAVYYCAVAIITYPYATGSSYDYWGQGTQVTVSS,polyreactivity (PSR sort gate),low polyreactivity
QVQLVESGRGLVQAGGSLRLSCAPSGIIFTSYAMGWYRQAPGKESEFVAAITRSGSRTYYADSVKGRFTISRDNAKNTVYLQMNRLKPEDTAVYYCAARTFHDSSDSYAGGYWGQGTQVTVSS,polyreactivity (PSR sort gate),low polyreactivity
QVQLVESGRGLVQAGGSLRLSCAPSGLIFRYYAMGWYRQAPGKEREFVAAISGRGASTYYADSVKGRFTISRDNAKNTVYLQMNSLKPEDTAVYYCATYFPSAVVAFHMDYWGQGTQVTVST,polyreactivity (PSR sort gate),high polyreactivity
QVQLVESGRGLVQAGGSLRLSCASSGSTCVRNVMGWYRQAPGKERELVAAISRRGGGTYYADSVKGRFTISRDNAKNTVYLQMNSLKPEDTAVYYCATGSIAAGHYAYNYWGQGTQVTVSS,polyreactivity (PSR sort gate),high polyreactivity
QVQLVESGRGLVQAGGTLRISFADSGRIFGNYAMGRYRQAPGKERELVAAIPWRGGRTRYADSVKGRFTISRDNAKNTVYLQMNSLKPEDTAVYYCAAPYTSSGPDDYWGQGTQVTVSS,polyreactivity (PSR sort gate),high polyreactivity
QVQLVESGRGLVQAGGTLRLSCAASGSTFGSYAMGWYRQAPGKEREFVATISRSGGRTYYAASVKGRFTISRDNAKNTVYFQMNSLKPEDTAVYYCATDRRYWIGYDYWGPGTQVTVSS,polyreactivity (PSR sort gate),high polyreactivity
QVQLVESGRGLVQAGVSLRLSCAASGPTFRGNVMGRYRKAPGKERELVAAINWTGSSTYYADSVKGGFTISRDNAKNTVYLQMNSLKPEDTAVDYCATRIGPHGGGLPRDYWGQGTQVTVSS,polyreactivity (PSR sort gate),low polyreactivity
